For data set [1], the target named is T1, His6-TCP4 (TCP4-His6) (Arabidopsis thaliana, UniProt Q8LPR5 1-420).
T1 sequence: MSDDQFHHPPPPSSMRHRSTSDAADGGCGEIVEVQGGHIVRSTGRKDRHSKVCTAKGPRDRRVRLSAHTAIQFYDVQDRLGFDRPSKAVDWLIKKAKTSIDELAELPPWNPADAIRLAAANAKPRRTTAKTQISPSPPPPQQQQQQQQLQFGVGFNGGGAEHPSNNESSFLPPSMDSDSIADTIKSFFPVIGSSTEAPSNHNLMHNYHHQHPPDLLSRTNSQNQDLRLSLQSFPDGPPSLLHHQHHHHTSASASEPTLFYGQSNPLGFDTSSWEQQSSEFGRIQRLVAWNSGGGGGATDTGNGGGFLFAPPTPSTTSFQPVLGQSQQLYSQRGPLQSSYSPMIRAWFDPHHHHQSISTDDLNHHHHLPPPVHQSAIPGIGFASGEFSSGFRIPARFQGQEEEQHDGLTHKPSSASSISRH
Kind of data set: EMSA.

The target in data set [2] is T1, His6-TCP4 (TCP4-His6). As to the kind of experiment: EMSA. This is another data set of the same source.

Read-outs that look alike come from different tables or passages of the source.

B1: BS3-4 (dsDNA)
DNA 1: CAACACACAAATGTGGTCCATTTCTTTTTGTTCATGTGGTCCAATTTTGGTATAT
DNA 2: ATATACCAAAATTGGACCACATGAACAAAAAGAAATGGACCACATTTGTGTGTTG
Turning to B1, in the data set with His6-TCP4 (TCP4-His6) [1], the binding result is listed as “binds”.

B2: BS1 (dsDNA)
DNA 1: TCAATTCAACTAGGCCCAGTTTCCTCCTTC
DNA 2: GAAGGAGGAAACTGGGCCTAGTTGAATTGA
As for B2, the binding result in the data set with His6-TCP4 (TCP4-His6) [2] was “no binding”.

B3: BS2 (dsDNA)
DNA 1: GTGATGTTAAAATGGTCCTAAGTTGACATA
DNA 2: TATGTCAACTTAGGACCATTTTAACATCAC
With B3, the binding result in the data set with His6-TCP4 (TCP4-His6) [1] is listed as “binds”.

B4: BS5 (dsDNA)
DNA 1: TTGCATATTGGTTGGTCCAAAAAGATCAAC
DNA 2: GTTGATCTTTTTGGACCAACCAATATGCAA
In the case of B4, the binding result with His6-TCP4 (TCP4-His6) [2] is “no binding”.
